Variants at the floor of the assay were thinned out.
B1: TPR 5TU (parent)
chain: GGAUCUUCUCGAUCUAACAAAAAAGACAAAUCUGCCACAAAGCUUGAGAGCAUCUUCGGAUGCAGAGGCGGCAGCCUUCGGUGGCGCGAUAGCGCCAACGUUCUCAACUAUGACACGCAAAACGCGUGCUCCGUUGAAUGGAGUUUAUCAUG

Variants of: B1
Assay: polymerase ribozyme fitness, log enrichment relative to wild type (log ratio); higher = more active; in vitro selection for triplet polymerase activity
How it was run: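 PCR was used to build mutant libraries for each subunit of a heterodimeric triplet polymerase ribozyme, which were then transcribed. A single in vitro selection round, in triplicate, used a frozen incubation at −7 °C and recovered extended constructs by gel excision, streptavidin beads and RT-PCR. Fitness is the logarithm of genotype enrichment relative to wild-type enrichment, averaged over replicates with inverse-variance weights. The logarithm is base 2, and after Illumina sequencing only genotypes with ≥10 input reads and ≥1 read per output were kept.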

Variant	polymerase ribozyme fitness (log ratio)
C51A C96U	-1.91
U31C U45A G70C G92C	≤ -4.2
C85G A119C	-2.45
C85G A119G	-1.7
U4G A73C G92C	-4.15
A21U C79G C96U C105U U134A	≤ -4.2
A3G U33G U55A A66C C108U	≤ -4.2
C76U G83U G84U C123U	-2.49
C14U A21C C27U C36A G62U G80C G86A A137C	-3.96
U56C G83A C87G C123U G141A	≤ -4.2
C8U G92C U111C	≤ -4.2
U13G U33G C54U	≤ -4.2
U55G U127G	-2.9
A41U G88A C95G A106C A120G	≤ -4.2
G83U G126A U148A	≤ -4.2
C99G U134C	-0.713
A20G C38G C69U G86U A91U C99G A137G	≤ -4.2
C32G G59C C96A U144A	≤ -4.2
U53A C99U U134A	-3.7
U15C C87U A142U	-0.702
G50A G88A C95U C123G U139G U151G	≤ -4.2

Variant	polymerase ribozyme fitness (log ratio)
C99G C108A A110G	≤ -4.2
A12C A20U C79U G84U	≤ -4.2
A12C G92C	-0.73
A37U U146G	-2.19
A29C U53A G84C C93U A121G C125G	≤ -4.2
A3U G48C C51U C57U C95A A115C	≤ -4.2
A37C C51U G58C C95G C118A	-3.66
G11C A41C C95A U146G	-3.34
U33G G68A C87G C108U A120C G136U	≤ -4.2
C93G G140U	≤ -4.2
G62C C72U C85U C108U	≤ -4.2
G62A G81U C95A G126U	0.493
U9G G25C C27U C35U U102A A147C	≤ -4.2
C5U G141C	-0.459
A22U A24C A40U U55A C85A G117C G136U A138C	≤ -4.2
A19C C32U C69A U77C C103A G143A U145A	≤ -4.2
C96A C116U G136U A150G	-4.06
G86U C93U	-2.59
C38U U134G	-2.53
U6G U139C	-3.69
U7G	-2.22

Variant	polymerase ribozyme fitness (log ratio)
A39G C99G C108U	≤ -4.2
A30G A41C	-3.51
C18U U53A C85A C96A A137G	≤ -4.2
A29U U33A U102G A113U U144C	≤ -4.2
A24U C96U C129G	-3.47
U7A A29G G67A C69U G80C C103G U104C C105U G136A G140U	≤ -4.2
G48A A60G G83U G126U U134C	-3.58
A52G G92C G117U A137G U144A	≤ -4.2
A28G A29U A89C G141C	≤ -4.2
U45A A60G	-2.47
A21U C85U G124A G126A G136A	-3.04
C14G U61A	-3.55
U55A G81C G84U C116A	-2.11
C5G A41C U55A G58A A60G	-1.54
A22G G65A A97U	-2.68
U55A G62U C63G C87U A98U A120U C149G	≤ -4.2
U13A A22U A41C U53G	-2.31
A28C G58C	≤ -4.2
U82G C87U	-0.516
A12U U15G A39U G86U U102G C116U	≤ -4.2
A20G U104C G117U	-0.102

Variant	polymerase ribozyme fitness (log ratio)
A20U C96G	-0.585
G59A U61C	-0.735
U7G C96U C129U A137G	≤ -4.2
A21G A52U C85G A119G C125U A137U	≤ -4.2
G80A C96G	-1.11
A30G C32A C43A C93A C105A	≤ -4.2
U33A G83A C95U U151C	≤ -4.2
A17C C18U C43U A97G U148A	≤ -4.2
C18A G86U C103U U145A	-2.81
C54U G68U U82A G94A A97C G117A A138C G141A	≤ -4.2
U7C A23U C87A A89G A115U U134A	≤ -4.2
A60G G83A G133C	-1
C36U A142C	-2.05
C35U C43A A60C U101G	≤ -4.2
A24C C75A A106U C132G U139C A142U	≤ -4.2
C8A A24G A41C C93U A97U A120G	≤ -4.2
G11C A23U G50C C54G C57U A89G C116A G124C U139A	≤ -4.2
C51U C93G C116U G141A	-3.75
U45G C87U U111G A147C	≤ -4.2
A30C C63U A66C A73U C85A A91C U109G	≤ -4.2
